Measured values reported in paper PMC9976466, “Insights into the structure-function relationship of the NorQ/NorD chaperones from Paracoccus denitrificans reveal shared principles of interacting MoxR AAA+/VWA domain proteins” (BMC Biology, 2023).
Residue numbers refer to the chain shown, from its start. Names and notes keep the numbering of the source. Values joined by “and” are separate entries in the source; they are usually repeats but may differ in a detail not shown here. Equal values may be shown once.

Assays:
NorQ = target: T1, NorQ (Paracoccus denitrificans, UniProt Q51664, E109Q); experiment: Blue Native PAGE, ATP-induced shift to hexamer; format: binding; settings: 2 mM ATP, 20 mM MgCl2; Walker B variant, ATPase activity lost
T1 construct: full length, N-terminal 6-His tag (pET-hQ), expressed in E. coli BL21(DE3); ~30 kDa monomer, several oligomeric states up to hexamer

[1] = target: 6-His-tagged NorD (Paracoccus denitrificans); experiment: native gel or EMSA; BN-PAGE of purified NorQ^WBD (~10 μg per lane) after addition of ATP
[2] = target: the molecule itself; experiment: as above
[3] = target: the molecule itself; experiment: native gel or EMSA + SEC; BN-PAGE (NativePAGE 4-16% Bis-Tris, 4 °C) of purified NorQ (14 μg) and NorQ^WB (18 μg), with 2 mM ATP and 20 mM MgCl2 in Fig. 2b; SEC on Superdex 200 in 20 mM TRIS/HCl pH 8, 300 mM NaCl, 10% glycerol

Molecule: Nc1ncnc2c1ncn2[C@@H]1O[C@H](COP(=O)(O)OP(=O)(O)OP(=O)(O)O)[C@@H](O)[C@H]1O [ATP]
- Blue Native PAGE, ATP-induced shift to hexamer (NorQ): clear shifting of the oligomerization state to the hexamer (Fig. 2b) for the NorQ^WB

B1: untagged NorQ^WB (E109Q), co-expressed with 6-His-tagged NorD (enzyme, Paracoccus denitrificans, UniProt Q51664 1-270, looked up)
chain: MNAHVKTQGNGAVDAPFYLPQGDEVAVFEAAAANDLPVLLKGPTGCGKTRFVAHMAARLGRPLYTVACHDDLSAADLIGRYLLKGGETVWTDGPLTRAVREGAICYLDQVVEARKDVTVVLHPLTDDRRILPIDRTGEEIEAAPGFMLVASYNPGYQNILKTLKPSTRQRFVAMEFDFPEPAREVEIVARESGLDRDRTLGLVRLAGKIRGLKGQDLEEGVSTRLVVYAASLTRRGMNLDRAIEAAMIEPLTDDAEVKRGLRDLAAAIFG
notes: NorQ of Paracoccus denitrificans, Uniprot Q51663, Walker B variant; the norQ gene was cloned into a pET21a backbone with the T7 RBS; Hexameric within the NorQ^WBD complex (BN-PAGE, cryo-EM); trimer to hexamer after addition of ATP; also called NorQ^WB (in NorQ^WBD; Q^WBD)
- stoichiometry N [1]: 3
- stoichiometry N [2]: 3

B2: wildtype 6-His-tagged NorQ (enzyme, Paracoccus denitrificans, UniProt Q51664 1-270, looked up)
chain: B1 chain with Q109E
notes: NorQ, MoxR-class AAA+ ATPase of Paracoccus denitrificans, Uniprot Q51663; the norQ gene was cloned into a pET21a backbone; about 30 kDa; Expressed without NorD; Forms several oligomeric states from monomer to hexamer; source: dialysis
- stoichiometry N [3]: 6 and 3 and 4 and 5
